The data set in a line: label from the status in PepcDB records.
Consider “MRKRNPRRATPEELRVCSVLKEKGTREELAHLAARGEWSNVPAYNASREQIADHLGKSVSPESDASFFDSRRFSEAIVLLKSRPVLLVKNGIFDEAPLAGLEQRLKKHRAALATPIRSVGRLELIDHDSMDWCGTGWRIEDDLIVTNRHVASLFAERQGSLFRFRLNQAGKQVRTRVDFREEYRQPESDEHVIARVLWIAPDVSEAPDMAILQVVKGDLLPPPLVLARQDAEPRQAVAVVGYPARDSRNDAGAMEDIFGNIYDVKRFAPGEVVGLPHDAWYLTHDCSTLGGNSGSAVLSIDGGEVVGLHFGGQFRKTNYAVKASVIRSLLARRAWVPVAGAELKRGVPRFQEKQRSVADLAERKGFDEAFLGPKAALPKPGKSHQVLPVGKGTRLDYLHFSVVMSASRRLPILTAVNIDGALKRSLKRKDSWGFDPRIEAAAQVGHKDFYGPASFDKGHMVRREDPGWGDSDAVARQAEDDTFVYTNAVPQVAQLNQRSWLSLEDYVLQNARSEGFRISVFTGPVFRDDDPLYQGVQVPLEFWKVVAMIDADSGELGVSAYLLGQEGMMPSEGFRYGAFKTYQVPLAKVEASADLRFSSALRKADVLAGTPLEEALESGRFIEIDGPDDLLLSRPGPAGKGPLRFRPAAATRVAVR”, for which the protein production entry was “failed”.

Regarding “MRKTPSHTEKKMVYSIRSLKNGTGSVLIGASLVLLAMATPTISSDESTPTTNEPNNRNTTTLAQPLTDTAAGSGKNESDISSPGNANASLEKTEEKPAASPADPAPQTGQDRSSEPTTSTSPVTTETKAEEPIEDNYFRIHVKKLPEENKDAQGLWTWDDVEKPSENWPNGALSFKDAKKDDYGYYLDVKLKGEQAKKISFLINNTAGKNLTGDKSVEKLVPKMNEAWLDQDYKVFSYEPQPAGTVRVNYYRTDGNYDKKSLWYWGDVKNPSSAQWPDGTDFTATGKYGRYIDIPLNEAAREFGFLLLDESKQGDDVKIRKENYKFTDLKNHSQIFLKDDDESIYTNPYYVHDIRMTGAQHVGTSSIESSFSTLVGAKKEDILKHSNITNHLGNKVTITDVAIDEAGKKVTYSGDFSDTKHPYTVSYNSDQFTTKTSWRLKDETYSYDGKLGADLKEEGKQVDLTLWSPSADKVSVVVYDKNDPDKVVGTVALEKGERGTWKQTLDSTNKLGITDFTGYYYQYQIERQGKTVLALDPYAKSLAAWNSDDSKIDDAHKVAKAAFVDPAKLGPQDLTYGKIHNFKTREDAVIYEAHVRDFTSDPAIAKDLTKPFGTFEAFIEKLDYLKDLGVTHIQLLPVLSYYFVNELKNHERLSDYASSNSNYNWGYDPQNYFSLTGMYSSDPKNPEKRIAEFKNLINEIHKRGMGAILDVVYNHTAKVDLFEDLEPNYYHFMDADGTPRTSFGGGRLGTTHHMTKRLLIDSIKYLVDTYKVDGFRFDMMGDHDAASIEEAYKAARALNPNLIMLGEGWRTYAGDENMPTKAADQDWMKHTDTVAVFSDDIRNNLKSGYPNEGQPAFITGGKRDVNTIFKNLIAQPTNFEADSPGDVIQYIAAHDNLTLFDIIAQSIKKDPSKAENYAEIHRRLRLGNLMVLTAQGTPFIHSGQEYGRTKQFRDPAYKTPVAEDKVPNKSHLLRDKDGNPFDYPYFIHDSYDSSDAVNKFDWTKATDGKAYPENVKSRDYMKGLIALRQSTDAFRLKSLQDIKDRVHLITVPGQNGVEKEDVVIGYQITAPNGDIYAVFVNADEKAREFNLGTAFAHLRNAEVLADENQAGPVGIANPKGLEWTEKGLKLNALTATVLRVSQNGTSHESTAEEKPDSTPSKPEHQNEASHPAHQDPAPEARPDSTKPDAKVADAENKPSQATADSQAEQPAQEAQASSVKEAVRNESVENSSKENIPATPDKQAELPNTGIKNENKLLFAGISLLALLGLGFLLKNKKEN”, the protein production entry was “failed”.

For the sequence “MRKVLVTVLLVLTVLSLFSAVKIAVILPMTGGISAFGRMVWEGIQIAHEEKPTVLGEEVELVLLDTRSEKTEAANAAARAIDKEKVLAIIGEVASAHSLAIAPIAEENKVPMVTPASTNPLVTQGRKFVSRVCFIDPFQGAAMAVFAYKNLGAKRVVVFTDVEQDYSVGLSNFFINKFTELGGQVKRVFFRSGDQDFSAQLSVAMSFNPDAIYITGYYPEIALISRQARQLGFTGYILAGDGADAPELIEIGGEAVEGLLFTTHYHPKAASNPVAKKFVEVYKEKYGKEPAALNALGYDAYMVLLDAIERAGSFDREKIAEEIRKTRNFNGASGIINIDENGDAIKSVVVNIVKNGSVDFEAVINPDDLK”, the protein production entry is “not failed”.

For the sequence “MRLGPAATSPSSGPRILPPAAHGDPRTAALPRATHLQIHDRRALSGLRDHPHLESVHLKGDFTLADLKALPTTLRHLDLSECTGSAKSFRAIAYLAGLPLESLNVAGAEIGDGGARLLAANPSLKSLNAASGGISASGARMLAESPTLESLDLTQNAIGDAGAQALAGSRSLRHLAVRNGLVTDLGTRALALNPALVSLDLGNLVTETGNQVEQDGYDKTANNITAQGAWALAQNRSLKSLSVQGNDLCGDDGVRALARNRTLTSLNVAFTNMTSASAKALADNPVLTSLSVRWNYGLDDAGAMELAMSRSLTSLDARDTGMSARGALALAANARISVWHDHANPVRAPLGEPPLSGLAGDPGQASRTAPGGAIWSSAAQARHVSAEAPANSAMTASTREGFALIDPFFNRVARESGLNVQAPQEMPWTRLRPSASEANHGNAGAHGASAEGLASSRMAASIREGLGLIDQYVDRMGREYGLPVRAPAAQPDSAAPEATQPTLPADVWQTIAAQADPRVRRTLSTVSKPLRAAALAATKHLTVWDKAAFSRLRNYPALESLSFHGPLSLADLRALPPSVRHLDLSGCTGSAVSEAGLAYLARLPLASLDLSDTGIGNRGAQALAASASLTSLNLSGNGIGTAGAEALGRNTVLTALDISANPIRNAGAQALAGSRSLTSLELRDTGIEDGGIEALAANTVLRSLDISGNDLSDQSAAALAANRTLTSLKANGCGLTNDMAQQLARIRSLRTLEVGSNSIGDAGVLTIARNASLRSLNLSRNPITPQGLYPLALSRTLKSLDVSRIGCGDRGALLLSGNRALTSLKLGFNRVSSEGARRLAANRTLVSLDLRGNTIDVAAARALANAEPLASLNVSDCRLDDAVACALAESRTLTSLDVSWNRLSHRAARALANNPVLASLYISHNDIGPEGAQALADSASLTFLDARANRIGEAGARLLEANTRMRGTPQNPHFLAQDVPE”, the protein production entry is recorded as “failed”.

As for “MRLISKPVLCNYYVTYRCNATCGFCDIWEKPSPYVTPEAVEQNMRDLKKLGVKVIDFTGGEPLLHREMDTLLRIAKKYGMITTLTTNALLYPKWAERLKGLIDMLHFSLDSPDKAEHDTLRGVACFDFVLESIEKAKALG”, the protein production result is recorded as “failed”.

Take “MRLKDLGERALLARLAPLGYPPEAPLPPGDDAGGVWAEGRAWLLKTDGFLYREVALKGMGPFEVGFRGVAATASDLLAKMGRPLGFTLGLFLPEDLEEGFVLELVRGAAEAAKRLGAFLLGGDTNRGVEVALTVSGYALAEAPLPRKALPGDLLYLAGDRWGRTGAAIRAHYEGRSLEGFPKIREAAFYPLPRLELLALSGLLRGSLDSSDGLAETLWQLADLGVGVEVEALPLYPDVLAFAGSEEAALELVLYGGEEFEAVLVVPQEGAAAVEARAKAKGLPLFRAGRVVAGEGVYLRGAPLPRKGYAHF”: the protein production result is reported as “not failed”.

Take “MRLRLLSLPFILSLCAPLLPLNTLAAERIVTIGGDVTEIAYALGAGDEIVARDSTSQQPQAAQKLPDVGYMRTLNAEGILAMKPTMLLVSELAQPSLVLTQIASSGVNVVTVPGQTTPESVAMKINAVATALHQTEKGQKLIEDYQQRLAAVNKTPLPVKVLFVMSHGGLTPMAAGQNTAADAMIRAAGGSNAMQGFSRYRPLSQEGVIASAPDLLLITTDGVKALGSSENIWKLPGMALTPAGKHKRLLVVDDMALLGFGLETPQVLAQLREKMEQMQ”: the protein production result is on record as “failed”.

For “MRLSRGVFLLLLLLALASPLMIVGCGGPSFLPAASLRDPSVDMAWPPAPNPARIRFLREISGPEQVKAEPGAIARFLEFVTGEQFKHVPFVTPYGVVSDGGTLLFVSDSSSGVVHRIDLARQKVSYIVRAGDEFLSSPVGLALSPSGDLYVSDSVNAKVYVFSRDGEFLRVLADGQVDFKRPAGLAVNSKGVLFVVDVLAHKLKVFNVSGRFLGDFPPDDIGGKLNLPSHVAVDKDDKVYVTDALNFTVKVYDSARRYLRSIGEIGDAPGSFARPRGVAVDSDLNVYVIDAAFDNFQIFNQEGQLLLFVGKPGKKSGEFYMPSGIHIDRNDRIFISDSYNRRVQVFEYLKEENR”, the protein production result is “failed”.

Take “MRMLKTGLLNFISVLVKVITGLFLNKIMALYVGPAGYALVSQFQNGINFITTFASGAINTGVTKYTAEYANDKGKTSDLFKCITLLAITCCSFFSLTIIVFSEYFSLKLLGTINYSGVIKWFAATLFLFVANSILVSIINGLKEFKLYVLINIFGSLFSLLFSGILIYFFNLKGALIAFATNQSIVFFMTFYLIISKKMVSLKSFIGMPSDFYFIKKLIQYALMAIVSAFCVIYMQIIIRTYIANHFGWVQAGIWDGVWRISSLYLMLVTVPLGVYYLPRLAELHTKSLLLREIKQGYLFLLPIIIISAIIIYYLRYFIIELLFSKSFVSMGDIIGWQLLGDIFKIGSWLLSYIMLSKALTKTYIITEITTALLFLGGVHYLSPLYGLKGVTLAYCITYFCYWIMMIVVIISYFKGNFRNE”: the protein production entry is “failed”.

For the sequence “MRMPDRTDVCVLLPTLNESETIGDVVGGFYDHGFEHVLVVDGDSTDGTRAIAREHGARVITQSGSGKGQAVREGVEQIDQPYVLMADGDGTYRPEDADKMLTPLFAGRAEHVIGDRFADMEAGAMTRLNAVGNRLINRLFATIHGRDLQDILSGYRAFTTQSFERSKLSADGFGIETELAVECVRRGVSTAVVPIRYEARPGGSETNLHPLKDGGRILLTLYRLARMNNPIFYFGSVAAVGTAGGVALGAFVGYRYLTAGVSHEVLALLAAFLVLLSVQLLMFGVLSDIIVSIHREQTRRLDDIADQLEEQNDE”, the protein production entry is listed as “failed”.

Consider “MRMRYQGRLSDWNDHKGFGFVTPHGGGDRAFVHISAFAQQTRRPRDGEIITYAIERDAHKRLNATQVRWADRTTAARTEQRRSGLPRKTLAAVSMLALAAATLMHVLPVIVPLWYAAASLVTLLIYAMDKSAAQRNQWRTPESSLHLLALIGGWPGALLAQEIHRHKCSKAAFQLTFWLTVALNVSALVLAVTETDLMATLPAVFD”, for which the protein production entry is on record as “failed”.

With “MRMTLRQLRIFNEVCDLRSYSRAAEEMSLTQPAVSLQVRQLEELIGQPLFEYVGKKLYMTEAAEALQLASRDIFGRLESLDMQLSDMQGSLQGQLKLAVESSCKYFIPHLFAAFKRQHPEVSLSLMVVNRAQIIRRLSDNRDDLVVMSAVPLDMGLEFLPFLNNPIVAVAPPDHPLSSRETLSLKDLEPWPLLTRETGSGTRRACEEYFKEKRVHFTQTLEVSSSEAQRECVVAGLGLAMLTRHAVCQELATGTLVELPVAELPLYRSWCVVQARDKRLSPVAHAFLAFIRTERAQISQLVERFDGRPQAV”, the protein production result is on record as “failed”.

Consider “MRNDTMLNDTPFQDDDSRWQAVVTRNKAADSCFIYAVKTTSIYCAPSCASRQPRRENVVFFATADEAQAAGFRPCKRCRQGMLSRQEQQAQQIARACRMIEQSDRPPTLAVLAQAVGMSAFHFHRVFKTTTGLTPKQYASAYRHRQLREHLADNGEVTAAIVAAGYDASGRFYAEAGTHLGMTPTAFQNRGKGMTIHFAIGRCSLGDVLVAESEKGICAILLGDDPEPLLNTLQEMFAHAHLVGGDAAFEQRMSQVVGFVDDPSIGLTLPLDIRGTAFQQRIWQALRAIPVGETLSYREVAERIGSPAAVRAVAGACAANRLAVAIPCHRVVRHDGALSGYRWGVERKRALLEKEQVEKKQIVHQPEESPP”, for which the protein production entry is “failed”.

Values taken from a protein production outcome set (Wang et al. 2014).
